Results reported in patent US20160052997A1 (CELLTRION, published 2016).
Values joined by “and” are separate entries in the source; they are usually repeats but may differ in a detail not shown here. Equal entries are not always repeated. Where two headings read alike, the source gives them in different places.

Legend:
[1] = biological target: T1, purified recombinant HA protein of H1N1 (A/California/04/09) (Influenza A virus A/California/04/09 …, UniProt P26140 18-529); experiment: SPR, Biacore T200, HA captured via anti-6x his tag antibody, 25 C
[2] = biological target: T1, purified recombinant HA protein of H1N1 …

B1: CT149 (antibody, V domains shown)
VH: QVQLVQSGAEVKKPGASVKVSCKTSGYSFSTYGVSWVRQAPGQGPEWVGWISAYTGITDYAQKFQGRVTLTTDATTATAFLDLRSLRPDDTATYFCARDKVQGRVEVGSGGRHDYWGQGTLVIVSS
VL: EVVLTQSPGTLALPPGERATLSCRASHRVGSTYIAWYQQKSGQAPRRLIYGASNRATDIPDRFSGSGSGTDFTLTIRRLEPEDSAVYYCQQFSVSPWTFGQGTRVEIKR
B1 was tested, and the Kd [1] was 30.2 nM and 31 nM, the koff [1] was 0.0388 s⁻¹ and 0.0399 s⁻¹ and the kon [1] was 1.29e+06 M⁻¹ s⁻¹. For the same binder, the Kd [2] was 30.6 nM.
